Measurements taken from publication PMC3763546, “Structural insight into negative DNA supercoiling by DNA gyrase, a bacterial type 2A DNA topoisomerase” (Nucleic Acids Research, 2013).

Biological target: the molecule itself
Experiment: native MS; native ESI-MS (time-of-flight), 200 mM ammonium acetate pH 7.5, sample at 8 uM; without and with ADPNP, without and with the 155 bp DNA

B1: Thermus thermophilus GyrB-GyrA fusion protein (GyrBA-fus) (enzyme)
chain: MSYDASAIRVLKGLEGVRHRPAMYIGGTGVEGYHHLFKEILDNAVDEALAGYATEILVRLNEDGSLTVEDNGRGIPVDLMPEEGKPAVEVIYTTLHSGGKFEQGAYKVSGGLHGVGASVVNALSEWTVVEVFREGKHHRIAFSRGEVTEPLRVVGEAPRGKTGTRVTFKPDPEIFGNLRFDPSKIRARLREVAYLVAGLKLVFQDRQHGKEEVFLDKGGVASFAKALAEGEDLLYEKPFLIRGTHGEVEVEVGFLHTQGYNAEILTYANMIPTRDGGTHLTAFKSAYSRALNQYAKKAGLNKEKGPQPTGDDLLEGLYAVVSVKLPNPQFEGQTKGKLLNPEAGTAVGQVVYERLLEILEENPRIAKAVYEKALRAAQAREAARKARELVRRQNPLESDELPGKLADCQTENPEEAELFIVEGDSAGGSAKQGRDRRFQAILPLRGKILNVEKAGLSKALKNAEVRAMVSAIGVGIGGDGEAHFDLEGLRYHKIIIMTDADVDGSHIRTLLLTFFYRYMRPLIERGHVYIAQPPLYRLQVGKKVEYLYSDEELQARLKELEGKHYEVQRFKGLGEMNPEQLWETTMNPEKRVLKRVELQDALEASELFEKLMGQEVAPRREFIEEHARYAELDIGDLMAQVLPVEITEELKQSFINYAMSVIVDRALPDVRDGLKPVQRRILFGAYQEGVLPGRKHVKSAKIVGEVMGKYHPHGDAAIYDALVRMAQPWNLRYPLIDGQGNFGSIDGDPPAAQRYTEARLSPIGAEMLLDIDKDTVDFRPNYDGSLKEPEVLPAAIPNLLVNGASGIAVGMATSLPPHNLSEVVDALVAMIENPAITLEEVMRHLPGPDFPTGGKLSKKGIKEAYATGRGSLKVRAKVRVEEKGQRPVLVVTEIPYQVNKASLIAQIAALVKAKKIEDIVGLRDESDRQGLRIAIELKRGANPQVVLNQLYKHTALQTSFTVNLLAIVDGEPKVLSLLDLMRHYLDHRKEVVRRRSLFELRKAEERAHVLEGLLIALDHIDEVIALIRGSEDAPKARIALMERFGLSEAQAQAILDMRLQRLVALEREKLLEEYRGLMEEIARLKAILEDEARLLAEVKADLLRVKEKYGDARRTLITEFEETFNPEDLIEDEPMVITLTAQGFLKRLPLESYRAQGRGGKGLLAGRTKEEDEATHVFVADAHDDLLLFTNRGRVYRLKVYELPEMGRQARGVHVKSLLPLAEDEEVAALLSVRGLDQEGYLVFATERGLVKRTALKEYQNLGQAGLIAIRLQEGDRLVGVALSDPEDEAILATQEGQAIRFPLEEVRATGRDTQGVIGVRFKKPEDRVVSLVVVKPGEMVDLLSVSTRGYGKRTPLSEYPLQGRGGMGVITYAVSTKVGRLAALLKVRGGEDLLVLSRRGLAIRTPVAEIRQYSRATAGVRVMNLPEDDEVASAFVVEEEK
notes: DNA gyrase subunit B (GyrB), Thermus thermophilus, amplified from genomic DNA; three-amino acid G-D-L linker between the C-terminus of GyrB and the N-terminus of GyrA; DNA gyrase subunit A (GyrA), Thermus thermophilus, amplified from genomic DNA; The His10 tag stands upstream of a PreScission protease (P3C) site; Details of cloning and purification are in the Supplementary Methods; A dimer of the …
  stoichiometry N: 2
